{"source": "paper PMC8965321", "target": "GP46 protein of Lactococcus lactis phage vB_Llc_bIBBF13 (F13), purified, SUMO tag removed (Lactococcus lactis phage vB_Llc_bIBBF13 (F13))", "test": "SEC-MALS; GP46F13 100 ul injected at 1.5 mg/ml on Superdex 200 Increase 10/300, room temperature, 0.5 ml/min, 50 mM Tris-HCl pH 8, 500 mM NaCl, 20 mM imidazole, no cofactors", "data": [{"substance": "GP46 protein of Lactococcus lactis phage vB_Llc_bIBBF13 (F13), purified, SUMO tag removed (enzyme)", "values": [{"measurement": "stoichiometry N", "result": 2}]}]}
